Values quoted from earlier work as cited in patent US20100028328A1, “TOPICAL TREATMENT FOR DISEASES OF EYE SURFACE” (THERAKINE, LTD., priority 2006, published 2010).

Assays:
[1] = tested on: Herpetic Stromal Keratitis (HSK), Herpes simplex virus infection of the cornea; conditions: treatment of HSK
[2] = tested on: allogeneic corneal transplants; conditions: topical treatment

## IL-1 ra: receptor antagonist to IL-1
[1]
  influx of cells of the innate and adaptive immune system into the cornea: reduce the influx of cells of the innate and adaptive immune system into the cornea

B1: TNFR-I: a TNF antagonist; topical soluble tumor necrosis factor receptor type I (protein, UniProt P19438 30-211, looked up)
extracellular domain: LVPHLGDREKRDSVCPQGKYIHPQNNSICCTKCHKGTYLYNDCPGPGQDTDCRECESGSFTASENHLRHCLSCSKCRKEMGQVEISSCTVDRDTVCGCRKNQYRHYWSENLFQCFNCSLCLNGTVHLSCQEKQNTVCTCHAGFFLRENECVSCSNCKKSLECTKLCLPQIENVKGTEDSGTT
modifications: extracellular domain
[2]
  acceptance of allogeneic corneal transplants: promoted the acceptance of allogeneic corneal transplants
  gene expression of chemokines associated with corneal graft rejection (RANTES, macrophage inflammatory protein-1beta): inhibited gene expression of 2 chemokines
